# Key:
# [1] = biological target: separate RPA2 WH-domain (pTYB12-WH), recombinant; test: MST; 100 nM target labelled on cysteines (RED-…), concentration gradient of unlabelled ligand; Monolith NT.115, premium coated capillaries, 40% MST power; 50 mM Tris-HCl pH 7.5, 100 mM NaCl, 1 mM DTT, 0.05% Tween-20, 0.5 mg/ml BSA; KD from at least three runs
# [2] = biological target: mouse UNG2 wild type, recombinant (mUNG2-pET28a) (mouse) (UniProt P97931); test: as above
Substance,Kd [1] [nM],Kd [2] [nM]
"mouse UNG2 wild type, recombinant (mUNG2-pET28a) (from UniProt P97931-1 1-306) (domain or fragment)",860,–
"separate RPA2 WH-domain (pTYB12-WH), recombinant",–,1260

# Reference: paper PMC10810282
